{"source": "paper doi:10.1101/2020.11.04.368696v1", "system": "CC/C=C\\CCO", "test": "purified protein", "details": "2 mM acetyl-CoA, 50 °C", "data": [{"substance": "CATec3 (CAT3_ECOLIX) (Escherichia coli; Y20F)", "values": [{"measurement": "Km", "result": "6.4 ± 2.2", "unit": "mM"}, {"measurement": "kcat", "result": "2.3 ± 0.2", "unit": "s⁻¹"}]}]}
